Source: patent publication US20210221882A1 (Sanofi, published 2021)
Where a chain is given by its changes, count along the chain named.

How the values were obtained:
Assay in all cases: cell-based or functional assay
[1] = molecular target: T1, Recombinant human IL-4 (human, UniProt P05112 25-153)
T1 sequence (looked up): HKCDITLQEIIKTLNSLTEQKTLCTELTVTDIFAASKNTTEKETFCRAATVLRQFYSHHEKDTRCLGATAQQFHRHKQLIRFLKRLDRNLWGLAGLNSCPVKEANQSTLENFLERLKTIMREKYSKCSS

[2] = molecular target: T1, Recombinant human IL-4; remark: listed apart in the source
[3] = molecular target: T2, cynomolgus monkey IL-4 (cynomolgus monkey, UniProt P79339 25-153, limits assumed)
T2 sequence (looked up): T1 sequence (looked up) with E26K, V29I, F33L

[4] = molecular target: T1, Recombinant human IL-4; remark: listed apart in the source

B1: huTBTI3_2_1 (bispecific antibody)
VH: EVQLKESGPGLVAPGGSLSITCTVSGFSLTDSSINWVRQPPGKGLEWLGMIWGDGRIDYADALKSRLSISKDSSKSQVFLEMTSLRTDDTATYYCARDGYFPYAMDFWGQGTSVTVSSGGGGSGGGGSQVQLQQSGPELVKPGASVKISCKASGYSFTSYWIHWIKQRPGQGLEWIGMIDPSDGETRLNQRFQGRATLTVDESTSTAYMQLRSPTSEDSAVYYCTRLKEYGNYDSFYFDVWGAGTLVTVSS
VL: DIVLTQSPASLAVSLGQRATISCRASESVDSYGQSYMHWYQQKAGQPPKLLIYLASNLESGVPARFSGSGSRTDFTLTIDPVQAEDAATYYCQQNAEDSRTFGGGTKLEIKGGGGSGGGGSDIQMTQSPASLSVSVGDTITLTCHASQNIDVWLSWFQQKPGNIPKLLIYKASNLHTGVPSRFSGSGSGTGFTLTISSLQPEDIATYYCQQAHSYPFTFGGGTKLEIK
[1]
  IC50, inhibition of IL-4-induced Stat6 phosphorylation in human blood monocytes, donor 217: 0.78 nM
  IC50, inhibition of IL-4-induced Stat6 phosphorylation in human blood monocytes, donor 229: 0.73 nM
  IC50, inhibition of IL-4-induced Stat6 phosphorylation in human blood monocytes, donor 245: 1.32 nM
[2]
  Mean IC50, inhibition of TF-1 cell proliferation induced by human IL-4: 2.03 nM
[3]
  Mean IC50, inhibition of TF-1 cell proliferation induced by cynomolgus IL-4: 0.53 nM
[4]
  IC50, IL-4/IL-13-stimulated IL-6 release from LL97A IPF lung fibroblasts (combination of 15 ng/ml rhIL-13 plus 5 ng/ml rhIL-4): 7.8 nM
  IC50, IL-4/IL-13-stimulated eotaxin release from LL97A IPF lung fibroblasts (combination of 15 ng/ml rhIL-13 plus 5 ng/ml rhIL-4): 3.8 nM
  IC50, IL-4 and IL-13 induced LOX gene expression in IPF pulmonary fibroblasts (Taqman): 3 to 6 nM
